Assays:
Format in all cases: biochemical
[1] = cell-free cyclolavandulylation activity screening of prenyltransferases, substrate tryptophan; settings: cell-free reaction with CLDS and DMAPP (CLPP donor), 28° C., 48 hours, QTOF LC/MS, with vs without prenyltransferase
From the text: (§1) Genes encoding the following prenyltransferases were codon-optimized, synthesized, and cloned into the pET28a vector for protein expression and isolation/purification as described in Example 1. • NphB (Accession: 1ZB6_A) (SEQ ID NO: 8) • AbPT (Accession: KPI30840.1) (SEQ ID NO: 9) • SkPT (Accession: Q2L6E3.1) (SEQ ID NO: 10) • SvPT (Accession: WP_078899560.1) (SEQ ID NO: 11) • Sr1310PT (Accession: WP_057602682.1) (SEQ ID NO: 12) • NapT8 (Accession: ABS50461.1) (SEQ ID NO: 13) • NapT9 (Accession: ABS50490.1) (SEQ ID NO: 14) • Mcl23PT (Accession: AGH68908.1) (SEQ ID NO: 15) • CnqP3PT (Accession: WP_047018069.1) (SEQ ID NO: 16) • AtaWTPT (Accession: AMB20850.1) (SEQ ID NO: 17) • MzPT1 (Accession: WP_135330628.1) (SEQ ID NO: 18) • MzPT2 (Accession: WP_135330626.1) (SEQ ID NO: 19) B. Cell-Free Biosynthesis Reaction with CLPP and Various Aromatic Substrates
(§2) The cyclolavandulyl diphosphate synthase, CLDS was prepared as described in Example 1 and used in the synthesis of CLPP.
(§3) Stocks of the various aromatic compounds used as substrates for cyclolavandulylation activity screening were obtained from the following commercial sources: • Resveratrol (Fisher Scientific) 200 mM stock in DMSO • Luteolin (Fisher Scientific) 200 mM stock in DMSO • Naringenin (Fisher Scientific) 200 mM stock in DMSO • Tryptamine (Fisher Scientific) 200 mM stock in DMSO • Tryptophan (Fisher Scientific) 40 mM stock in water • Olivetolic acid (Toronto Research Chemicals) 200 mM stock in DMSO • Divarinic acid (Toronto Research Chemicals) 200 mM stock in DMSO • Phorolic acid (prepared in house) 200 mM stock in DMSO • Olivetol (Fisher Scientific) 200 mM stock in DMSO • Screening for cell-free biosynthesis was carried out as follows. 10 mM DMAPP, 5 mM MgCl2, 100 mM Tris-HCl (pH=8), and 4 mg/mL CLDS (SEQ ID NO: 4) were combined in a 6.80 mL reaction, which was incubated at 28° C. for 48 hours. This mixture was aliquoted into a 96-well plate (80 μL per well). The various prenyltransferases (18 μL, ˜1 g/L final concentration) listed above were screened across various substrates (2 μL of stock solution, variable concentration shown above), which were added to the wells and incubated at 28° C. for an additional 48 hours.
(§4) Analysis of the reaction mixture was carried out as follows: 50 μL of the reaction mixture were added to 1 mL MeOH. The resulting solution was vortexed, centrifuged at 17,200 g for 5 minutes, and transferred to an HPLC vial for analysis. HRMS-QTOF analyses of the cell free reactions was performed on an Agilent Technologies 6545 Accurate Mass QTOF LC/MS with a reverse-phase column (Agilent Infinity Lab Poroshell 120 ECC18, 2.7 μm, 3.0×50 mm) using positive ESI with 1% MeCN—H2O (0.1% FA) for 2 min followed by a linear gradient of 1-99% MeCN—H2O (0.1% FA) for 14 min with a flow rate of 0.4 mL/min.
(§5) Mass spectrometric (MS) analysis of chromatograms was carried out using MassHunter Qualitative Analysis 10.0. Targeted metabolomics using the exact m/z of the calculated proton adduct [H^+] in the presence and absence of prenyltransferase indicated the presence of cyclolavandulylated product.

[2] = cell-free cyclolavandulylation activity screening of prenyltransferases, substrate olivetolic acid; settings: cell-free reaction with CLDS and DMAPP (CLPP donor), 28° C., 48 hours, QTOF LC/MS, with vs without prenyltransferase
From the text: as §1, §2, §3, §4, §5

[3] = cell-free cyclolavandulylation activity screening of prenyltransferases, summary over all tested substrates; settings: any of the tested substrates; cell-free biosynthesis reaction with CLDS from Streptomyces sp. CL190 and DMAPP
From the text: as §1, §2, §3, §4, §5

[4] = cell-free cyclolavandulylation activity screening of prenyltransferases, substrate resveratrol; settings: cell-free reaction with CLDS and DMAPP (CLPP donor), 28° C., 48 hours, QTOF LC/MS, with vs without prenyltransferase
From the text: as §1, §2, §3, §4, §5

[5] = cell-free cyclolavandulylation activity screening of prenyltransferases, substrate luteolin; settings: cell-free reaction with CLDS and DMAPP (CLPP donor), 28° C., 48 hours, QTOF LC/MS, with vs without prenyltransferase
From the text: as §1, §2, §3, §4, §5

[6] = cell-free cyclolavandulylation activity screening of prenyltransferases, substrate divarinic acid; settings: cell-free reaction with CLDS and DMAPP (CLPP donor), 28° C., 48 hours, QTOF LC/MS, with vs without prenyltransferase
From the text: as §1
(§6) The cyclolavandulyl diphosphate synthase, CLDS was prepared as described in Example 1 and used in the synthesis of CLPP. […]
as §5

[7] = cell-free cyclolavandulylation activity screening of prenyltransferases, substrate tryptamine; settings: cell-free reaction with CLDS and DMAPP (CLPP donor), 28° C., 48 hours, QTOF LC/MS, with vs without prenyltransferase
From the text: as §1, §2, §3, §4, §5

[8] = cell-free cyclolavandulylation activity screening of prenyltransferases, substrate phorolic acid; settings: cell-free reaction with CLDS and DMAPP (CLPP donor), 28° C., 48 hours, QTOF LC/MS, with vs without prenyltransferase
From the text: as §1, §6, §5

[9] = cell-free cyclolavandulylation activity screening of prenyltransferases, substrate olivetol; settings: cell-free reaction with CLDS and DMAPP (CLPP donor), 28° C., 48 hours, QTOF LC/MS, with vs without prenyltransferase
From the text: as §1, §6, §5

[10] = cell-free cyclolavandulylation activity screening of prenyltransferases, substrate naringenin; settings: cell-free reaction with CLDS and DMAPP (CLPP donor), 28° C., 48 hours, QTOF LC/MS, with vs without prenyltransferase
From the text: as §1, §2, §3, §4, §5

B1: NphBM31s: engineered soluble variant of prenyltransferase NphB from Streptomyces sp. CL190, SEQ ID NO: 6 (protein)
chain: MSEAADVERVYAAIEEAAGLLGVACARDKIWPLLSTFQDTLVEGGSVVVFSMASGRHSTELDFSISVPPSHGDPYAIVVEKGLFPATGHPVDDLLADIQKHLPVSMFAIDGEVTGGFKKTYAFFPTDNMPGVAELAAIPSMPPAVAENAELFARYGLDKVQMTSMDYKKRQVNLYFSELSAQTLEAESVLALVRELGLHVPNELGLKFCKRSFSVYPTLNWDTSKIDRLCFSVISTDPTLVPSSDEGDIEKFHNYATKAPYAYVGEKRTLVYGLTLSPKEEYYKLGAVYHITDVQRKLLKAFDSLED
modifications: Synthetic polymer
presence of cyclolavandulylated product, Aromatic Compound (Substrate) Tryptophan [1]: No | presence of cyclolavandulylated product, Aromatic Compound (Substrate) Olivetolic Acid [2]: Yes | cyclolavandulylation activity with tested aromatic compounds (summary of Table 7) [3]: produced a cyclolavandulylated aromatic compound | presence of cyclolavandulylated product, Aromatic Compound (Substrate) Resveratrol [4]: Yes | presence of cyclolavandulylated product, Aromatic Compound (Substrate) Luteolin [5]: No | presence of cyclolavandulylated product, Aromatic Compound (Substrate) Divarinic Acid [6]: Yes | presence of cyclolavandulylated product, Aromatic Compound (Substrate) Tryptamine [7]: No | presence of cyclolavandulylated product, Aromatic Compound (Substrate) Phorolic Acid [8]: No | presence of cyclolavandulylated product, Aromatic Compound (Substrate) Olivetol [9]: No | presence of cyclolavandulylated product, Aromatic Compound (Substrate) Naringenin [10]: No

Reference: patent publication US20250043319A1, “BIOSYNTHESIS OF CYCLOLAVANDULYL DERIVATIVES OF AROMATIC COMPOUNDS” (Invizyne Technologies, Inc., priority 2022, published 2025)
